# Source: KR20220012792A (dated 2022)
# Where two headings read alike, the source gives them in different places.
# B1: No. 139 항체 (Full IgG) (antibody, V domains shown)
# VH: QITLKESGPTLVKPTQTLTLTCSFSGFSLSTSGVGVGWIRQPPGKALEWLALIDWDDNKYHTTSLKTRLTISKDTSKNQVVLTMTNMDPVDTATYYCARIPGFLRYRNRYYYYGMDVWGQGTTVTVSS
# VL: ELVLTQPPSVSAAPGQKVTISCSGSSSNIGNNYVSWYQQLPGTAPKLLIYDNNKRPSGIPDRFSGSKSGTSATLGITGLQTGDEADYYCGTWDSSLSAGVFGGGTELTVL
# Assays:
# Experiment in all cases: cell-based or functional assay
# [1] = target: T1, S 단백질 of SARS-CoV-2 hCoV-19/South Korea/KUMC17/2020 (614G) (SARS-CoV-2)
# [2] = target: T1, S 단백질 of SARS-CoV-2 hCoV-19/South …; remark: listed apart in the source
# [3] = target: T1, S 단백질 of SARS-CoV-2 hCoV-19/South …; remark: listed apart in the source
# [4] = target: S 단백질 of SARS-CoV-2 hCoV-19/South Korea/KCDC9481/2020 (614G, G형) (SARS-CoV-2)
# [5] = target: T2, S 단백질 of SARS-CoV-2 hCoV-19/Korea/KCDC10847/2020 (GH형) (SARS-CoV-2)
# [6] = target: T1, S 단백질 of SARS-CoV-2 hCoV-19/South …; remark: listed apart in the source
# [7] = target: T2, S 단백질 of SARS-CoV-2 …; remark: listed apart in the source
# [8] = target: S 단백질 of SARS-CoV-2 영국변이바이러스주 hCoV-19/South Korea/KDCA0838/2020 (SARS-CoV-2)
binder,measurement,setting,value
B1,"IC50, PRNT",[1],5.73 ng/mL
same,"IC50 (ng/ml), PRNT",[2],3.37 ng/mL
same,"IC50 (ng/ml), PRNT",[3],5.77 ng/mL
same,"IC50 (ng/ml), PRNT",[4],10.6 ng/mL
same,"IC50 (ng/ml), PRNT",[5],10.4 ng/mL
same,"IC50 (ng/ml), PRNT",[6],4.22 ng/mL
same,"IC50 (ng/ml), PRNT",[7],9.31 ng/mL
same,"IC50 (ng/ml), PRNT",[8],9.62 ng/mL
